Read-outs that look alike come from different tables or passages of the source.
Assays:
[1] = target: monkey MASP3-His (monkey); assay: ELISA; antigen coated 0.1 ug/well, antibody titrated, goat anti-human IgG-HRP
mouse MASP3-His (mouse) = mouse MASP3-His (mouse) (UniProt P98064); assay: as above
human MASP3-His (human) [2] = target: human MASP3-His (human) (UniProt P48740); assay: as above
[3] = target: MASP3 in Factor D depleted human plasma (human) (UniProt P48740); assay: cell-based or functional assay
human MASP3-His (human) [4] = target: human MASP3-His (human) (UniProt P48740); assay: cell-based or functional assay
[5] = target: MASP3 in Factor D depleted human plasma (human) (UniProt P48740); assay: cell-based or functional assay; remark: listed apart in the source

Chain of human MASP3-His (human) (P48740 other isoform, or with tags, fused parts or gaps): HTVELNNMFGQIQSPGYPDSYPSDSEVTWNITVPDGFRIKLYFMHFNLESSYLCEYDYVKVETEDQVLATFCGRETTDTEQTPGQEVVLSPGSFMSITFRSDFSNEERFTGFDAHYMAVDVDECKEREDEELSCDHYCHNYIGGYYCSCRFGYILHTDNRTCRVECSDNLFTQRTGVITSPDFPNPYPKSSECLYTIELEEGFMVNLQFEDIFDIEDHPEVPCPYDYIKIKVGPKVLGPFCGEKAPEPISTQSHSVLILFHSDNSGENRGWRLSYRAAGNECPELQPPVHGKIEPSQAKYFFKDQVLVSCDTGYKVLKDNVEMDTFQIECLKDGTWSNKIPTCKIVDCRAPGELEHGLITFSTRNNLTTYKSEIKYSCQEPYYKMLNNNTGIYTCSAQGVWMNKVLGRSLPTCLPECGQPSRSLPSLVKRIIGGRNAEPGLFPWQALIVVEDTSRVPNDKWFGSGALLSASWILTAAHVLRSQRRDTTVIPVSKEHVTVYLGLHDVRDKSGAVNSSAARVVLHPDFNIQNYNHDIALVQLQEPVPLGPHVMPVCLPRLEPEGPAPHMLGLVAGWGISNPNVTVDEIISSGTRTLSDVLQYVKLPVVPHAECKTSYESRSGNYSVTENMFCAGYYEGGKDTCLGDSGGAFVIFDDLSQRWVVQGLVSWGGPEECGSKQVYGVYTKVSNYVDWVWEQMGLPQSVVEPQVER
Chain of MASP3 in Factor D depleted human plasma (human) (P48740 other isoform, or with tags, fused parts or gaps): as above
Chain of mouse MASP3-His (mouse) (P98064 other isoform, or with tags, fused parts or gaps): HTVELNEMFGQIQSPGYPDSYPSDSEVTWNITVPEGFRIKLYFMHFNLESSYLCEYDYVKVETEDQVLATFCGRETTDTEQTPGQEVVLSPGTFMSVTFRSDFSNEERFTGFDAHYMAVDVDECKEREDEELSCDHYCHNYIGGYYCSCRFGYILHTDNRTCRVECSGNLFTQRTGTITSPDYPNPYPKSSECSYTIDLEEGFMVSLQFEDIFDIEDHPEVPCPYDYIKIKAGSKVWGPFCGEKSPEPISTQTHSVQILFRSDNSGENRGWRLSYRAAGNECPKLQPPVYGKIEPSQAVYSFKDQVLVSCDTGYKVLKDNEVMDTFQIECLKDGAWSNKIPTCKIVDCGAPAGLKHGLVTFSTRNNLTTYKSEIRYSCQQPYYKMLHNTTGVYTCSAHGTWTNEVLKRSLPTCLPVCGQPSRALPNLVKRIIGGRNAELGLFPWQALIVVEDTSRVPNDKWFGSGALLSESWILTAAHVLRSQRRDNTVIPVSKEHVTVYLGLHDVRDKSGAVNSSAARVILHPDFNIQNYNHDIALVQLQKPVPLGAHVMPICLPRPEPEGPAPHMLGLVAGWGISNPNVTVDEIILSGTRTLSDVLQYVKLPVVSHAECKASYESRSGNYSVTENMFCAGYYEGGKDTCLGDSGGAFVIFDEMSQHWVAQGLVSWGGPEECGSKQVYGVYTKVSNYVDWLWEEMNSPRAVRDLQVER

## OMS906 (antibody)
[1]
  EC50: 2.97 nM
Mouse MASP3-His (mouse)
  EC50: 5.33 nM
Human MASP3-His (human) [2]
  EC50: 0.98 nM
[3]
  Inhibit hemolysis IC50: 17.1 nM
Human MASP3-His (human) [4]
  IC50 (nM), inhibition of MASP3 enzyme activity (cleavage of fluorescent tripeptide Boc-Val-Pro-Arg-AMC): 200 nM
[5]
  Inhibit hemolysis IC50: 13 nM

Reference: patent EP4725501A1
